Measured values taken from paper PMC6108569.

Target: OphAΔC18
Assay: crystal structure; proteins from the dimer fractions of gel filtration chromatography, incubated with SAM, SAH or sinefungin before crystallization; hanging drop vapor diffusion unless otherwise specified; homodimer in the crystal

**Q.** How did the stoichiometry N turn out when OphAΔC18 (enzyme) was run?
**A.** 2
